Laboratory results published in US20180346592A1.

Experiments:
[1] = target: GPC3 on the surface of hepatic cancer cell lines (SK-Hep1-GPC3 transfectant, HepG2, Huh7, Hep3B, SNU398) (human) (UniProt P51654); assay: FACS, HepG2 cells, 1 ug antibody; lower left panel (Human naive library)
[2] = target: GPC3 on the surface of hepatic cancer cell lines (SK-Hep1-GPC3 transfectant, HepG2, Huh7, Hep3B, SNU398) (human) (UniProt P51654); assay: FACS, SK-Hep1-GPC3 #9 cells, 1 ug antibody; lower left panel
[3] = target: GPC3 on the surface of hepatic cancer cell lines (SK-Hep1-GPC3 transfectant, HepG2, Huh7, Hep3B, SNU398) (human) (UniProt P51654); assay: FACS, SK-Hep1-GPC3 #9 cells, 1 ug antibody; upper right panel
[4] = target: GPC3 on the surface of hepatic cancer cell lines (SK-Hep1-GPC3 transfectant, HepG2, Huh7, Hep3B, SNU398) (human) (UniProt P51654); assay: FACS, HepG2 cells, 1 ug antibody; upper right panel (Synthetic library)

B1: clone GN328 (scFv, V domains shown)
VH: EVQLVESGGGLVQPGGSLRVSCAASGFTFSTAWMDWVRQAPGKGLEWVANINPDGSEKHYVDSVKGRFTVSRDNAKNSVYLHMNNLRAEDTAVYYCSKALDYWGQGTTVTVSS
VL: DIQMTQSPSTLSASVGDRVTITCRASQNINTWLAWYQQKPGKAPEVLIYEASSLESGVPPRFSGSGSGTEFTLTISSLQPDDSATYYCQQYNTYSPTFGQGTKLEIKR
- Mean, FL2-H [1]: 4.24
- Mean, FL2-H [2]: 4.17

B2: clone GX247 (scFv, V domains shown)
VH: QVQLVQSGAEVKKPGASVKVSCKASGYTFTSYYMHWVRQAPGQGLEWMGIINPSGGSTSYAQKFQGRVTMTRDTSTSTVYMELSSLRSEDTAVYYCARTRKGSGYSYGYGMDVWGQGTTVTVSS
VL: SYELTQPPSVSVSPGQTASITCSGDKLGNKYVSWYQQKPGQSPVLVIYQDNKRPSGIPERFSGSNSGNTATLTISGTQAMDEAGYYCQTWDSSVVFGGGTKLTVLG
- Mean, FL2-H [1]: 5.53
- Mean, FL2-H [2]: 6.07

B3: clone GS010 (scFv, V domains shown)
VH: EVQLLESGGGLVQPGGSLRLSCAASGFTFSNYSMSWVRQAPGKGLEWVSVISPSSGSIYYADSVKGRFTISRDNSKNTLYLQMNSLRAEDTAVYYCARYRVRQLKHTRSYADAMDVWGQGTLVTVSS
VL: QSVLTQPPSASGAPGQRVTISCSGSSSNIGSNAVSWYQQLPGTAPKLLIYANSHRPSGVPDRFSGSKSGTSASLAISGLRSEDETDYYCASWDSSLSGYVFGGGTKLTVLG
- Mean, FL2-H [3]: 4.53
- Mean, FL2-H [4]: 4.72

B4: clone GS015 (scFv, V domains shown)
VH: EVQLLESGGGLAQPGGSLRLSCAASGFTFSDYSMSWVRQAPGKGLEWVSAISPDGGSKYYADSVKGRFTISRDNSKNTLYLQMNSLRAEDTAVYYCARFRVIKLRAGWYSANGMDVWGQGTLVTVSS
VL: QSVLTQPPSASGTPGQRVTISCSGSSSNIGNNDVSWYQQLPGTAPKLLIYYNSKRPSGVPDRFSGSKSGTSASLAISGLRSEDEADYYCGAWDDSLNGYVFGGGTKLTVLG
- Mean, FL2-H [3]: 5.34
- Mean, FL2-H [4]: 3.64

B5: clone GS014 (scFv, V domains shown)
VH: EVQLLESGGGLVQPGGSLRLSCAASGFTFSNYAMSWVRQAPGKGLEWVSVISPNSGSNTYYADSVKGRFTISRDNSKNTLYLQMNSLRAEDTAVYYCARPRILRRRVDHSYSYAMDVWGQGTLVTVSS
VL: QSVLTQPPSASGTPGQRVTISCTGSSSNIGNNYVSWYQQLPGTAPKLLIYSNSHRPSGVPDRFSGSKSGTSASLAISGLRSEDEADYYCGTWDYSLSGYVLGGGTKLTVLG
- Mean, FL2-H [3]: 4.39
- Mean, FL2-H [4]: 5.66

B6: clone GS004 (scFv, V domains shown)
VH: EVQLLESGGGLVQPGGSLRLSCAVSGFTFSNYSMSWVRQAPGKGLEWVSAISPGSSNKYYADSVKGRFTISRDNSKNTLYLQMNSLRAEDTAVYYCARYRVWAHSASSSYSNAMDVWGQGTLVTVSS
VL: QSVLTQPPSASGTPGQRVTISCSGSSSNIGNNDVSWYQQLPGTAPKLLIYSDSQRPSGVPDRFSGSKSGTSASLAISGLRSEDEADYYCGSWDDSLNGYVFGGGTKLTVLG
- Mean, FL2-H [3]: 4.11
- Mean, FL2-H [4]: 4.38

B7: clone GX263 (scFv, V domains shown)
VH: EVQLVESGGGLVKPGGSLRLSCAASGFTFSSYSMNWVRQAPGKGLEWVSSISSSSSYIYYADSVKGRFTISRDNAKNSLYLQMNSLRAEDTAVYYCARVTPYYYYGMDVWGQGTTVTVSS
VL: QSVVTQPPSVSAAPGQKVTISCSGSSSNIGNNYVSWYQQLPGTAPKLLIYDSNKRPPGIPDRFSGSKSGTSATLGITGLQTGDEADYYCGAWDSSLSAVVFGGGTKLTVLG
- Mean, FL2-H [1]: 6.06
- Mean, FL2-H [2]: 3.71

B8: clone GS002 (scFv, V domains shown)
VH: EVQLLESGGGLVQPGGSLRLSCAASGFTFSGYSMSWVRQAPGKGLEWVSSISPGGSSTYYADSVKGRFTISRDNSKNTLYLQMSSLRAEDTAVYYCARYRVWHMTTGDYYSNAMDVWGQGTLVTVSS
VL: QSVLTQPPSASGTPGQRVTISCTGSSSNIGSNAVSWYQQLPGTAPKLLIYDDNKRPSGVLDRFSGSKSGTSASLAISGLRSEDEADYYCGTWDDSLSGYVFGGGTKLTVLG
- Mean, FL2-H [3]: 4.17
- Mean, FL2-H [4]: 4.71

B9: clone GX184 (scFv, V domains shown)
VH: QLQLQESGPGLVKPSETLSLTCAVSGGSISSSNNYWGWIRQPPGKGLEWIGSIFYSGSTYYNPSLKSRVTISVDTSKNQFSLKLSSVTAADTAVYYCARLPTGTPGFYFDYWGQGTLVTVSS
VL: SYELTQPPSVSKGLRQTATLTCTGNSNNVGNQGAAWLQQHQGHPPKLLSYRNNNRPSGISERFSASRSGNTASLTITGLQPEDEADYYCSAWDSSLSAWVFGGGTKLTVLG
- Mean, FL2-H [1]: 5.39
- Mean, FL2-H [2]: 3.99

B10: clone GS006 (scFv, V domains shown)
VH: EVQLLESGGGLVQPGGSLRLSCAASGFTFSGYSMSWVRQAPGKGLEWVSAISPGGGSKYYADSVRGRFTVSRDNSKNTLYLQMNSLRAEDTAVYYCARYRVQKSAKNVYSSNGMDVWGQGTLVTVSS
VL: QSVLTQPPPASGTPGQRVTISCSGSSSNIGNNAVNWYQQLPGTAPKLLIYYDSNRPSGVPDRFSGSKSGTSASLAISGLRSEDEADYYCGAWDSSLSAYVFGGGTKLTVLG
- Mean, FL2-H [3]: 3.65
- Mean, FL2-H [4]: 3.41

B11: clone GN414 (scFv, V domains shown)
VH: QVQLVQSGAEVKKPGASVKVSCKASGYTFSTYGITWVRQAPGQGLEWMGRITPNNGVTDYAQKFQGRVTMTRDTSISTAYMELSSLRSDDSAVYYCAREIGSSSWKLLDPWGQGTMVTVSS
VL: QAVLTQPSSVSVSPGQTASITCTGNSNNVGYEGAAWVQQYQGHPPKLLSDRNHNRPSGISERFSASRSGNTASLTITGLQSEDEADYYCSAWDSSLSEWVSGGGTKLTVLG
- Mean, FL2-H [1]: 6.9
- Mean, FL2-H [2]: 3.75
